Laboratory results reported in patent US20070054328A1 (published 2007).

B1: GST-FAPP1 (other, UniProt Q9HB20 1-300, looked up)
chain: MEGVLYKWTNYLTGWQPRWFVLDNGILSYYDSQDDVCKGSKGSIKMAVCEIKVHSADNTRMELIIPGEQHFYMKAVNAAERQRWLVALGSSKACLTDTRTKKEKEISETSESLKTKMSELRLYCDLLMQQVHTIQEFVHHDENHSSPSAENMNEASSLLSATCNTFITTLEECVKIANAKFKPEMFQLHHPDPLVSPVSPSPVQMMKRSVSHPGSCSSERSSHSIKEPVSTLHRLSQRRRRTYSDTDSCSDIPLEDPDRPVHCSKNTLNGDLASATIPEESRLMAKKQSESEDTLPSFSS
notes: Control GST fusion expressed in 293 cells; not shown: N-terminal glutathione S-transferase (GST) tag
B2: GST-DAPP1 (other, UniProt Q9UN19 1-280, looked up)
chain: MGRAELLEGKMSTQDPSDLWSRSDGEAELLQDLGWYHGNLTRHAAEALLLSNGCDGSYLLRDSNETTGLYSLSVRAKDSVKHFHVEYTGYSFKFGFNEFSSLKDFVKHFANQPLIGSETGTLMVLKHPYPRKVEEPSIYESVRVHTAMQTGRTEDDLVPTAPSLGTKEGYLTKQGGLVKTWKTRWFTLHRNELKYFKDQMSPEPIRILDLTECSAVQFDYSQERVNCFCLVFPFRTFYLCAKTGVEADEWIKILRWKLSQIRKQLNQGEGTIRSRSFIFK
notes: Control GST fusion expressed in 293 cells; also called dual adaptor for phosphotyrosine and 3-phosphoinositides; not shown: N-terminal glutathione S-transferase (GST) tag
B3: endogenous TAPP1 of 293 cells (other, human, UniProt Q9HB21 1-404, looked up)
chain: MPYVDRQNRICGFLDIEENENSGKFLRRYFILDTREDSFVWYMDNPQNLPSGSSRVGAIKLTYISKVSDATKLRPKAEFCFVMNAGMRKYFLQANDQQDLVEWVNVLNKAIKITVPKQSDSQPNSDNLSRHGECGKKQVSYRTDIVGGVPIITPTQKEEVNECGESIDRNNLKRSQSHLPYFTPKPPQDSAVIKAGYCVKQGAVMKNWKRRYFQLDENTIGYFKSELEKEPLRVIPLKEVHKVQECKQSDIMMRDNLFEIVTTSRTFYVQADSPEEMHSWIKAVSGAIVAQRGPGRSASSEHPPGPSESKHAFRPTNAATATSHSTASRSNSLVSTFTMEKRGFYESLAKVKPGNFKVQTVSPREPASKVTEQALLRPQSKNGPQEKDCDLVDLDDASLPVSDV

Assays:
[1] = target: T1, endogenous PTPL1 (Protein Tyrosine Phosphatase Like-Protein-1) of 293 cells (human, UniProt Q12923 1-2485, limits assumed); test: GST pull-down from 293 cells; pNPP phosphatase assay and anti-PTPL1 immunoblot
T1 construct: also called FAP-1; endogenously expressed PTPL1
Experimental: Rates or amounts of para-nitrophenol production were calculated using a standard curve generated from known amounts of para-nitrophenol. For the insulin receptor peptide assay a 50 μl reaction was set up containing 20 mM Tris pH7.4, 150 mM NaCl, 1 mM DTT, 20 μM of the tyrosine-phosphorylated peptide and 100 ng of GST-PTPL1. After 10 min at room temperature, the reactions were terminated by the addition of 0.1 ml of BIOMOL green reagent and after an additional 20 min the amount of phosphate liberated was quantitated by absorbance at 620 nm and measured against inorganic phosphate standards. In all assays we ensured that the rate of para-nitrophenol formation or the dephosphorylation of the insulin receptor peptide, was linear with time.
Immunoblotting. For blots of total cell lysates or tissues 20 μg of protein was used. For the purified GST fusion proteins to detect association of endogenous PTPL1, 10 μg of fusion protein was employed for the PTPL1 blots and 0.1 μg for the GST blots. Samples were subjected to SDS/PAGE and transferred to nitrocellulose. […]

[2] = target: T1, endogenous PTPL1 (Protein Tyrosine …); test: cell-based or functional assay

T1 sequence (Q12923 whole entry): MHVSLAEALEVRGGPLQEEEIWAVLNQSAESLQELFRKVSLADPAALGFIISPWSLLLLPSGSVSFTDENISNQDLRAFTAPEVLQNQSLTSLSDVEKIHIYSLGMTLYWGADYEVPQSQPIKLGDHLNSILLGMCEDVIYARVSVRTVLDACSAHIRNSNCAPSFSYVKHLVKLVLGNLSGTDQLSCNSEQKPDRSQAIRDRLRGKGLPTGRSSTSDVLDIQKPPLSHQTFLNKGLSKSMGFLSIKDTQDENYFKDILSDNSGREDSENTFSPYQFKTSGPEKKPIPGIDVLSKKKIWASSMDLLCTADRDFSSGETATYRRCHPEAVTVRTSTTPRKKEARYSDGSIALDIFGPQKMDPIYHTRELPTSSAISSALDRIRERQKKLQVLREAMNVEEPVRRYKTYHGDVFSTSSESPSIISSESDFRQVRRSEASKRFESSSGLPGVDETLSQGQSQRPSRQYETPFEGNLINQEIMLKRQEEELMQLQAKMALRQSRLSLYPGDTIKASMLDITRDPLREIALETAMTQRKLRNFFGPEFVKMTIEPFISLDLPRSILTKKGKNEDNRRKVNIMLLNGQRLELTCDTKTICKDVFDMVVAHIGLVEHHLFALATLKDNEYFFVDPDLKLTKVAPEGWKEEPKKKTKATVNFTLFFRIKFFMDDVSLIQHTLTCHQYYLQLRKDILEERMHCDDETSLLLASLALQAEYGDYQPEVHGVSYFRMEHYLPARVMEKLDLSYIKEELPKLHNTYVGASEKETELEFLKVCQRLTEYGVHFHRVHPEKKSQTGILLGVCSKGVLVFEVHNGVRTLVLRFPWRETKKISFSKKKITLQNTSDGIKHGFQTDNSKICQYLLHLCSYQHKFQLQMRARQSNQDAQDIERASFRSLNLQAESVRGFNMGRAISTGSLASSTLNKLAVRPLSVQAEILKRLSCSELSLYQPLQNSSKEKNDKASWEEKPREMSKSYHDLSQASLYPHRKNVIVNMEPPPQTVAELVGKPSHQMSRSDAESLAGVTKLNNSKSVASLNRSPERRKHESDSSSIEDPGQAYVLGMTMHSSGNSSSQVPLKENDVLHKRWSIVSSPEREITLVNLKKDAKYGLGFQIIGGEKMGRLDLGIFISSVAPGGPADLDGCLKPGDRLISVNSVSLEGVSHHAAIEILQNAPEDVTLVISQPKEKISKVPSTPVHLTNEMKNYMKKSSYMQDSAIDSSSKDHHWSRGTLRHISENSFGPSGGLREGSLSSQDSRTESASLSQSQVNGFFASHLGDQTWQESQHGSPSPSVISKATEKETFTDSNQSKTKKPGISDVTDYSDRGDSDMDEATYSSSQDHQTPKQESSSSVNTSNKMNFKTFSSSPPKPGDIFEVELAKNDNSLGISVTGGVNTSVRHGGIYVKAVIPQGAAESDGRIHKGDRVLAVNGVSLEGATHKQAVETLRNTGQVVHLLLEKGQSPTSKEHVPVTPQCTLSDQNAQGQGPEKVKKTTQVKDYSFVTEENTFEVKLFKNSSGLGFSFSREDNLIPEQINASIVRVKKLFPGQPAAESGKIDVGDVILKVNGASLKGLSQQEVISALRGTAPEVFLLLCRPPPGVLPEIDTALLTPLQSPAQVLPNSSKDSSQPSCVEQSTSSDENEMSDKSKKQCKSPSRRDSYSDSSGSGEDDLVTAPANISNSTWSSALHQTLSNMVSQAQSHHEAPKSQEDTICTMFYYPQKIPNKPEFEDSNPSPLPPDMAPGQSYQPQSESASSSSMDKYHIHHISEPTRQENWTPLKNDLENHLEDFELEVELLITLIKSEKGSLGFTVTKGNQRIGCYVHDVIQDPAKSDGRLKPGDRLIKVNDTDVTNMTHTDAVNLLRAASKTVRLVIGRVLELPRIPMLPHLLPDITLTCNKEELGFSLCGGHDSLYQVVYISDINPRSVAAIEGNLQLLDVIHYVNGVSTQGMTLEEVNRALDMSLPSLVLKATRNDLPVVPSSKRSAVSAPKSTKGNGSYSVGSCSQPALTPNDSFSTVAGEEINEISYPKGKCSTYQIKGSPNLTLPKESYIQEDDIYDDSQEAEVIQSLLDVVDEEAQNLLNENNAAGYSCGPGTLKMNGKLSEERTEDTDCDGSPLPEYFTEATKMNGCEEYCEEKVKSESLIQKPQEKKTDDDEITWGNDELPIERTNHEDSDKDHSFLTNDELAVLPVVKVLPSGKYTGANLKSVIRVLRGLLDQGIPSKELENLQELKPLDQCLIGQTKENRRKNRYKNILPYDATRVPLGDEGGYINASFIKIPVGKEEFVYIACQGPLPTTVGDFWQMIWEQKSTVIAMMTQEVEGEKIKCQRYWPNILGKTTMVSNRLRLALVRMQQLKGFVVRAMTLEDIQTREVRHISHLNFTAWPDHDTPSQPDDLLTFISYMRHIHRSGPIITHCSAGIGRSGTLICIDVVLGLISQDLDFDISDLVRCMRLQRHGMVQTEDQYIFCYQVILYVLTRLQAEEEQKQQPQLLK

Binder	binding result [1]	pNPP phosphatase activity immunoprecipitated with the anti-PTPL1 antibody compared with the TAPP1 antibody [2] [fold]
B1	no binding	–
B2	no binding	–
B3	–	~6
